Reference: patent publication US20180155451A1 (published 2018)

T1: FcγRIIb extracellular domain with C-terminal His tag (human, UniProt P31994 43-217)
T1 construct: extracellular domain; Soluble receptor expressed in FreeStyle293 cells; analyte in Biacore; also called FcgRIIb; 2b; not shown: His tag at the C terminus
T1 sequence (looked up): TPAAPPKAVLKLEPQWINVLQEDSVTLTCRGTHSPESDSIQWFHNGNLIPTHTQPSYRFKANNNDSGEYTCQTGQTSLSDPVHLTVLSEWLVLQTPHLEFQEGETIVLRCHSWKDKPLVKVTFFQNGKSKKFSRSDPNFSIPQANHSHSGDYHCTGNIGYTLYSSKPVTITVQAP

B1: GpH7-A5/GpH7-B3 variant A330_20W/GpL16-k0 (antibody, human IgG1, kappa)
heavy 1: not shown
heavy 2: not shown
light: DIVMTQSPLSLPVTPGEPASISCQASESLVHSNRNTYLHWYLQKPGQSPQLLIYKVSNRFSGVPDRFSGSGSGTDFTLKISRVEAEDVGVYYCSQNTHVPPTFGQGTKVEIERTVAAPSVFIFPPSDEQLKSGTASVVCLLNNFYPREAKVQWKVDNALQSGNSQESVTEQDSKDSTYSLSSTLTLSKADYEKHKVYACEVTHQGLSSPVTKSFNRGEC
notes: He Ab: heterodimerized anti-glypican-3 IgG1, substitution in one H chain only; also called He Ab A330W
B2: GpH7-A5/GpH7-B3 variant E333_13S/GpL16-k0 (antibody, human IgG1, kappa)
heavy 1: not shown
heavy 2: not shown
light: B1 light
notes: He Ab: heterodimerized anti-glypican-3 IgG1, substitution in one H chain only; also called He Ab E333S
B3: GpH7-A5/GpH7-B3 variant P329_10E/GpL16-k0 (antibody, human IgG1, kappa)
heavy 1: not shown
heavy 2: not shown
light: B1 light
notes: He Ab: substitution in one H chain only; also called He Ab P329E
B4: GpH7-A5/GpH7-B3 variant P329_07I/GpL16-k0 (antibody, human IgG1, kappa)
heavy 1: not shown
heavy 2: not shown
light: B1 light
notes: He Ab: heterodimerized anti-glypican-3 IgG1, substitution in one H chain only; also called He Ab P329I
B5: GpH7-A5/GpH7-B3 variant E333_01G/GpL16-k0 (antibody, human IgG1, kappa)
heavy 1: not shown
heavy 2: not shown
light: B1 light
notes: He Ab: heterodimerized anti-glypican-3 IgG1, substitution in one H chain only; also called He Ab E333G
B6: GpH7-A5/GpH7-B3 variant P329_08L/GpL16-k0 (antibody, human IgG1, kappa)
heavy 1: not shown
heavy 2: not shown
light: B1 light
notes: He Ab: heterodimerized anti-glypican-3 IgG1, substitution in one H chain only; also called He Ab P329L
B7: GpH7-A5/GpH7-B3 variant A330_16H/GpL16-k0 (antibody, human IgG1, kappa)
heavy 1: not shown
heavy 2: not shown
light: B1 light
notes: He Ab: heterodimerized anti-glypican-3 IgG1, substitution in one H chain only; also called He Ab A330H
B8: GpH7-A5/GpH7-B3 variant P329_04F/GpL16-k0 (antibody, human IgG1, kappa)
heavy 1: not shown
heavy 2: not shown
light: B1 light
notes: He Ab: heterodimerized anti-glypican-3 IgG1, substitution in one H chain only; also called He Ab P329F
B9: GpH7-A5/GpH7-B3 variant E333_16H/GpL16-k0 (antibody, human IgG1, kappa)
heavy 1: not shown
heavy 2: not shown
light: B1 light
notes: He Ab: heterodimerized anti-glypican-3 IgG1, substitution in one H chain only; also called He Ab E333H
B10: GpH7-A5/GpH7-B3 variant I336_19Q/GpL16-k0 (antibody, human IgG1, kappa)
heavy 1: not shown
heavy 2: not shown
light: B1 light
notes: He Ab: heterodimerized anti-glypican-3 IgG1, substitution in one H chain only; also called He Ab I336Q
B11: GpH7-A5/GpH7-B3 variant I336_02A/GpL16-k0 (antibody, human IgG1, kappa)
heavy 1: not shown
heavy 2: not shown
light: B1 light
notes: He Ab: heterodimerized anti-glypican-3 IgG1, substitution in one H chain only; also called He Ab I336A
B12: GpH7-A5/GpH7-B3 variant I336_20W/GpL16-k0 (antibody, human IgG1, kappa)
heavy 1: not shown
heavy 2: not shown
light: B1 light
notes: He Ab: heterodimerized anti-glypican-3 IgG1, substitution in one H chain only; also called He Ab I336W
B13: GpH7-A5/GpH7-B3 variant E333_12R/GpL16-k0 (antibody, human IgG1, kappa)
heavy 1: not shown
heavy 2: not shown
light: B1 light
notes: He Ab: heterodimerized anti-glypican-3 IgG1, substitution in one H chain only; also called He Ab E333R
B14: GpH7-A5/GpH7-B3 variant E333_18N/GpL16-k0 (antibody, human IgG1, kappa)
heavy 1: not shown
heavy 2: not shown
light: B1 light
notes: He Ab: heterodimerized anti-glypican-3 IgG1, substitution in one H chain only; also called He Ab E333N
B15: GpH7-A5/GpH7-B3 variant P329_02A/GpL16-k0 (antibody, human IgG1, kappa)
heavy 1: not shown
heavy 2: not shown
light: B1 light
notes: He Ab: heterodimerized anti-glypican-3 IgG1, substitution in one H chain only; also called He Ab P329A
B16: GpH7-A5/GpH7-B3 variant I336_15Y/GpL16-k0 (antibody, human IgG1, kappa)
heavy 1: not shown
heavy 2: not shown
light: B1 light
notes: He Ab: heterodimerized anti-glypican-3 IgG1, substitution in one H chain only; also called He Ab I336Y

Tests used:
[1] = target: T2, FcγRIa extracellular domain with C-terminal His tag (human, UniProt P12314 16-292); assay: SPR (Biacore), antibody captured on antigen peptide chip, FcγR as analyte; binding relative to GpH7-A5/GpH7-B3/GpL16-k0 = 100
T2 construct: extracellular domain; Soluble receptor expressed in FreeStyle293 cells; analyte in Biacore; also called FcgRI; FcgRIa; not shown: His tag at the C terminus
Protocol: (§1) The heterodimerized antibodies He Abs in which one of the H chains was introduced with an alteration were assayed for their binding activities to each activating FcγR and inhibitory FcγR according to the method described in Example 4. […] The activating FcγRs in FIGS. 26, 27, 28, and 29 are FcγRIa, FcγRIIa (R), FcγRIIa (H), and FcγRIIIa, respectively.
(§2) Analysis of interaction between objective antibody and the FcγR was carried out using Biacore T100 (GE Healthcare). HBS-EP+ (GE Healthcare) was used as the running buffer, and the measurement temperature was set to 25° C. Chips produced by immobilizing the antigen peptide by the amine coupling method to a Series S Sencor Chip CM5 (GE Healthcare), or alternatively, chips produced by allowing preliminarily biotinylated antigen peptides to interact with and immobilize onto a Series S Sensor Chip SA (certified) (GE Healthcare) were used. Antibodies of interest were captured onto an antigen peptide-immobilized chip, and allowed to interact to each FcγR diluted with running buffer. To regenerate and repeatedly use the chip, the antibodies captured on the chip were washed off by reacting 10 mM glycine-HCl, pH 1.5.

[2] = target: T1, FcγRIIb extracellular domain with …; assay: as above
Protocol: as §1, §2

[3] = target: T2, FcγRIa extracellular domain with …; assay: SPR (Biacore); He/Con_1a divided by He/Con_2b (FcγRIIb)
Protocol: as §1, §2

T2 sequence (P12314 16-292): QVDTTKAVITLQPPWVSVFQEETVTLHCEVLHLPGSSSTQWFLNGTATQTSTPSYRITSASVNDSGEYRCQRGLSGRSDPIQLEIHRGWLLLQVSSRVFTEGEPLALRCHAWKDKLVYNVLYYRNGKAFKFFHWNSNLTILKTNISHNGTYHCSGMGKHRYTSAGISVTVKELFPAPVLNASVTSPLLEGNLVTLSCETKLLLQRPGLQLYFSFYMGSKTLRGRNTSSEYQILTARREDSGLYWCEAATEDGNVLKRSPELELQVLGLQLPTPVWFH

Binder	He/Con_1a (Ia binding) [1]	He/Con_2b (IIb binding) [2]	He_1a/2b (Ia/IIb) [3]
B1	108 % of control (control = 100)	76.1 % of control (control = 100)	1.41
B2	103 % of control (control = 100)	81.8 % of control (control = 100)	1.26
B3	78.8 % of control (control = 100)	52.7 % of control (control = 100)	1.5
B4	94.1 % of control (control = 100)	34.6 % of control (control = 100)	2.72
B5	103 % of control (control = 100)	81.4 % of control (control = 100)	1.26
B6	85.7 % of control (control = 100)	29.1 % of control (control = 100)	2.95
B7	106 % of control (control = 100)	87.6 % of control (control = 100)	1.21
B8	92.7 % of control (control = 100)	32.2 % of control (control = 100)	2.88
B9	101 % of control (control = 100)	83.3 % of control (control = 100)	1.21
B10	104 % of control (control = 100)	58.2 % of control (control = 100)	1.78
B11	106 % of control (control = 100)	84.9 % of control (control = 100)	1.25
B12	86.7 % of control (control = 100)	20.3 % of control (control = 100)	4.28
B13	102 % of control (control = 100)	80.4 % of control (control = 100)	1.27
B14	96.6 % of control (control = 100)	76.1 % of control (control = 100)	1.27
B15	102 % of control (control = 100)	40.5 % of control (control = 100)	2.52
B16	103 % of control (control = 100)	68.2 % of control (control = 100)	1.51
